# Data from article PMC10325834, “Characteristics of Mycobacterium tuberculosis PtpA interaction and activity on the alpha subunit of human mitochondrial trifunctional protein, a key enzyme of lipid metabolism” (Frontiers in Cellular and Infection Microbiology, 2023).
# Target: the molecule itself
# Test: SEC; Superdex 200 16/60 preparative grade; 50 mM Tris-HCl pH 8.0, 100 mM NaCl, 5% glycerol, 0.1% Tween 20; apparent molecular weight from a calibration curve
row,Protein,stoichiometry N
1,"recombinant alpha subunit of human mitochondrial trifunctional protein, wild type (enzyme, also called hTFPα; hTFPα-wt; source: E. coli BL21 (DE3), purified (Ni-NTA, SEC on Superdex 200)) not shown",2
2,"recombinant alpha subunit of human mitochondrial trifunctional protein, Y271F mutant (enzyme, also called hTFPα-Y271F; source: E. coli BL21 (DE3), purified (Ni-NTA, TEV cleavage, SEC)) not shown",2
